For series [1], the target named is 250-kDa (nonreduced) fragment of MUC2-N after cleavage by rCLCA1, D′–D3 and CysD (human). Put plainly: non-reducing SDS-PAGE with SYPRO Ruby stain and immunoblot; recombinant MUC2-N with or without in vitro cleavage by rCLCA1 fractions (18 h, 37 C, 20 mM Tris-HCl pH 7.5, 150 mM NaCl, 10 mM CaCl2), separated without DTT; D3 (MUC2-N3) antibody.
The target of series [2] is C-terminal cleavage product of human CLCA1 in sigmoid colon mucus and epithelium (human (endogenous in sigmoid colon)) (UniProt A8K7I4). Kind of series: non-reducing SDS-PAGE with immunoblot; mucus and epithelial lysate from mouse distal colon or human sigmoid colon, denatured in SDS sample buffer without DTT (non-reduced) against with 100 mM DTT (reduced), blotted with C-terminal CLCA1 antibodies; shows disulfide-linked species only. Background: In western blotting, separated proteins are transferred to a membrane and probed.

The target in series [3] is C-terminal cleavage product of mouse Clca1 in distal colon mucus and epithelium (mouse (endogenous in colon)) (UniProt Q9D7Z6). Described as above.
Series [4] has as its target C-terminal cleavage product of recombinant human CLCA1 in supernatant of transfected CHO-K1 cells (human) (UniProt A8K7I4). Kind of series: non-reducing SDS-PAGE with immunoblot; supernatant from hCLCA1-transfected CHO-K1 cells, reducing or nonreducing sample buffer, blotted with C terminus (3-ar) antibody; shows disulfide-linked species only.
Series [5] concerns the target Human CLCA1 in sigmoid colon mucus and epithelial lysate (N- and C-terminal products) (human (endogenous in sigmoid colon)) (UniProt A8K7I4). Put plainly: native gel or EMSA; NativePAGE Novex Bis-Tris 4-16% with G-250; mucus and epithelial lysates from human sigmoid colon, WT and Clca1-/- mouse colon and desalted medium with rCLCA1; blotted with N- or C-terminal CLCA1 antibodies. (In general: In EMSA bound probe runs differently from free probe, usually more slowly.)

In series [6] the target is Mouse Clca1 in colonic mucus and epithelial lysate (N- and C-terminal products) (mouse (endogenous in colon)) (UniProt Q9D7Z6). The series is described as above.
For series [7], the target named is Recombinant human CLCA1 in spent supernatant of rCLCA1-expressing CHO-K1 cells (N- and C-terminal products) (human) (UniProt A8K7I4). The description is as above.
Series [8] deals with the molecule itself. Kind of series: non-reducing SDS-PAGE with immunoblot; supernatant from hCLCA1-transfected CHO-K1 cells, reducing or nonreducing sample buffer, blotted with C terminus (3-ar) antibody; shows disulfide-linked species only.

A word on the stoichiometry N: it is the number of molecules, sites or subunits per partner or assembly. As for “250-kDa (nonreduced) fragment of MUC2-N after cleavage by rCLCA1, D′–D3 and CysD (domain or fragment)”, in series [1], the stoichiometry N is 3.
In turn, “C-terminal cleavage product of human CLCA1 in sigmoid colon mucus and epithelium (from UniProt A8K7I4 22-914) (domain or fragment)” yielded a stoichiometry N in series [2] of 2.
Take “C-terminal cleavage product of mouse Clca1 in distal colon mucus and epithelium (from UniProt Q9D7Z6 22-913) (domain or fragment)”: in series [3], the stoichiometry N stood at 2.
As to “C-terminal cleavage product of recombinant human CLCA1 in supernatant of transfected CHO-K1 cells (from UniProt A8K7I4 22-914) (domain or fragment)”, the stoichiometry N in series [4] was found to be 2.
Take “Human CLCA1 in sigmoid colon mucus and epithelial lysate (N- and C-terminal products) (from UniProt A8K7I4 22-914; A8K7I4 22-914) (complex)”: the stoichiometry N in series [5] was 8.
For the molecule “Mouse Clca1 in colonic mucus and epithelial lysate (N- and C-terminal products) (from UniProt Q9D7Z6 22-913; Q9D7Z6 22-913) (complex)”, in series [6], the stoichiometry N came to 8.
Consider “Recombinant human CLCA1 in spent supernatant of rCLCA1-expressing CHO-K1 cells (N- and C-terminal products) (from UniProt A8K7I4 22-914; A8K7I4 22-914) (complex)”, for which the stoichiometry N in series [7] is 8.

B1: Uncleaved recombinant human CLCA1 secreted from transfected CHO-K1 cells (natural protein, UniProt A8K7I4 22-914, looked up)
chain: NSLIQLNNNGYEGIVVAIDPNVPEDETLIQQIKDMVTQASLYLLEATGKRFYFKNVAILIPETWKTKADYVRPKLETYKNADVLVAESTPPGNDEPYTEQMGNCGEKGERIHLTPDFIAGKKLAEYGPQGRAFVHEWAHLRWGVFDEYNNDEKFYLSNGRIQAVRCSAGITGTNVVKKCQGGSCYTKRCTFNKVTGLYEKGCEFVLQSRQTEKASIMFAQHVDSIVEFCTEQNHNKEAPNKQNQKCNLRSTWEVIRDSEDFKKTTPMTTQPPNPTFSLLQIGQRIVCLVLDKSGSMATGNRLNRLNQAGQLFLLQTVELGSWVGMVTFDSAAHVQNELIQINSGSDRDTLAKRLPAAASGGTSICSGLRSAFTVIRKKYPTDGSEIVLLTDGEDNTISGCFNEVKQSGAIIHTVALGPSAAQELEELSKMTGGLQTYASDQVQNNGLIDAFGALSSGNGAVSQRSIQLESKGLTLQNSQWMNGTVIVDSTVGKDTLFLITWTMQPPQILLWDPSGQKQGGFVVDKNTKMAYLQIPGIAKVGTWKYSLQASSQTLTLTVTSRASNATLPPITVTSKTNKDTSKFPSPLVVYANIRQGASPILRASVTALIESVNGKTVTLELLDNGAGADATKDDGVYSRYFTTYDTNGRYSVKVRALGGVNAARRRVIPQQSGALYIPGWIENDEIQWNPPRPEINKDDVQHKQVCFSRTSSGGSFVASDVPNAPIPDLFPPGQITDLKAEIHGGSLINLTWTAPGDDYDHGTAHKYIIRISTSILDLRDKFNESLQVNTTALIPKEANSEEVFLFKPENITFENGTDLFIAIQAVDKVDLKSEISNIARVSLFIPPQTPPETPSPDETSAPCPNIHINSTIPGIHILKIMWKWIGELQLSIA
modifications: glycosylated
notes: human CLCA1, full-length construct, not cut at the self-cleavage site (120 kDa); also called uncleaved rCLCA1; uncleaved CLCA1; source: CHO-K1, transfected, in supernatant
For the molecule B1, in series [8], the “stoichiometry N” value amounted to 2.
